In paper PMC7847540, “ClpX Is Essential and Activated by Single-Strand DNA Binding Protein in Mycobacteria” (Journal of Bacteriology, 2020):

Target: the molecule itself
Test: size-based filtration (300-kDa cutoff filter)

B1: N-terminally 6×His-tagged truncated form of ClpX (lacking the first 60 amino acids) (enzyme)
chain: not shown
notes: ClpX ATPase, M. tuberculosis, lacking the first 60 amino acids; also called hexameric ClpX
For B1, the “stoichiometry N” value was 6.
